Test results reported in publication PMC6026317, “Molecular elements in FGF19 and FGF21 defining KLB/FGFR activity and specificity” (Molecular Metabolism, 2018).
Residue numbers refer to the chain shown, from its start. Names may count otherwise. “Also recorded” adds a separate entry of the source.

B1: FGF21,A^164: Native FGF21 with D164A substitution (protein, UniProt Q9NSA1 29-209, looked up, variant D164A)
Fibroblast growth factor 21: HPIPDSSPLLQFGGQVRQRYLYTDDAQQTEAHLEIREDGTVGGAADQSPESLLQLKALKPGVIQILGVKTSRFLCQRPDGALYGSLHFDPEACSFRELLLEDGYNVYQSEAHGLPLHLPGNKSPHRDPAPRGPARFLPLPGLPPALPEPPGILAPQPPDVGSSAPLSMVGPSQGRSPSYAS
B2: FGF21: Human FGF21 (UniProtKB #Q9NSA1 29–209, designated 1–181) (protein)
chain: B1 Fibroblast growth factor 21 with A164D
modifications: left off: SUMO (yeast), end not stated, cleaved | His6, end not stated, state not stated
B3: FGF21-19A: Hybrid protein: FGF21 1–156 fused with FGF19 169–194 (K194A) (protein)
chain: HPIPDSSPLLQFGGQVRQRYLYTDDAQQTEAHLEIREDGTVGGAADQSPESLLQLKALKPGVIQILGVKTSRFLCQRPDGALYGSLHFDPEACSFRELLLEDGYNVYQSEAHGLPLHLPGNKSPHRDPAPRGPARFLPLPGLPPALPEPPGILAPQPLETDSMDPFGLVTGLEAVRSPSFEA
modifications: left off: SUMO (yeast), end not stated, cleaved | His6, end not stated, state not stated
B4: FGF23: FGF23 (#Q9GZV9: 25–251) (protein, UniProt Q9GZV9 25-251, looked up)
Fibroblast growth factor 23: YPNASPLLGSSWGGLIHLYTATARNSYHLQIHKNGHVDGAPHQTIYSALMIRSEDAGFVVITGVMSRRYLCMDFRGNIFGSHYFDPENCRFQHQTLENGYDVYHSPQYHFLVSLGRAKRAFLPGMNPPPYSQFLSRRNEIPLIHFNTPIPRRHTRSAEDDSERDPLNVLKPRARMTPAPASCSQELPSAEDNSPMASDPLGVVRGGRVNTHAGGTGPEGCRPFAKFI

Key:
293/KLB cells = assay: Agonist pERK AlphaLISA assay in 293/KLB cells; assay type: cell-based, human; conditions: 10 min at 37° C, n = 3
Procedure: (§1) 293T HEK cells expressing KLB (or KL) or Hep3B cells were plated to 5–6 x 10^4 cells/well density in 96-well cell culture plate coated with poly-D-Lysine (Corning). The cells were serum starved for four hours in 0.1% BSA fraction V (ThermoFisher) containing media prior to treatment with protein and/or an antagonist peptide at the mentioned concentrations for 10 min at 37° C. For the antagonist assays, a chosen fixed dose within the range of 0.8–30 nM (depending on the cell type) of FGF21 or FGF19 stimulant was added to all the wells. BaF3 cells expressing human KLB/FGFR1c or human KLB/FGFR4-1c chimera were seeded at 5 × 10^5 cells/well density in 96-well cell culture plate and serum-starved overnight. FGF21/19 analogs were diluted in 0.02% Tween-20 containing RPMI1640 medium and the cells were treated for 15 min at 37° C. Following the respective cell treatments, the cells were lysed (with lysis buffer provided in the kit) for 10 min at room temperature on a shaker and the lysate was mixed with reaction mixture (consisting of reaction buffer, activation buffer, acceptor and donor beads provided in the kit). Phosphorylated ERK1/2 (pERK) levels were subsequently recorded by EnSpire Alpha or Envision Multilabel plate reader (Perkin Elmer). The cell assays corresponding to 293/KLB or Hep3B cells were carried out with AlphaLISA SureFire Ultra pERK1/2 (Thr 202/Tyr204) kit (Perkin Elmer), and BaF3 cells were done using AlphaScreen pERK1/2 (Thr202/Tyr204) kit (Perkin Elmer).
All cellular phosphorylation data were analyzed using 3-parameter non-linear regression curve in GraphPad Prism 7. Graphs are represented as relative maximal (100%) response of the positive control. All other test analog signals were adjusted accordingly as % values. […] Each peptide and protein analog was tested in triplicates in three independent experiments (n = 3), and normalized graphs plotted are expressed as mean ± SD unless otherwise noted.

lean (C57BL/6J) mice = assay: In vivo peptide antagonism study, cFos and EGR1 mRNA in pancreas and eWAT; parameters: species or system mouse; conditions: 1 mg/kg sc, one hour, WAT and pancreas
Source text: (§2) All animal studies were approved by and performed according to the guidelines of the Institutional Animal Care and Use Committee of the University of Cincinnati (Cincinnati, USA). Eight-week old male C57BL/6J mice (Jackson Laboratories) were given ad libitum access to either a chow diet (lean mice), or a high-fat high-sugar diet (HFD, DIO mice) containing 58% kcal from fat (Research Diets, catalog# D12331). For DIO mice, animals were maintained on the HFD for a minimum of 3 months prior to initiation of the pharmacological studies. The mice were maintained at 22 °C on a 12-h light–dark cycle with free access to water. Before the beginning of the studies, mice were randomized into treatment groups according to body weight. All injections and tests were performed during the light cycle with a group size of n = 8.
Mice were administered vehicle, FGF21 (1 mg/kg), or FGF19 (1 mg/kg) alone or in combination with 19C26,A^26 (30 mg/kg), (dosed 15 min prior to FGF21 or FGF19 administration) via sc injections. One-hour post FGF21 or FGF19 dosing, the mice were sacrificed and their plasma, pancreas, and epididymal white adipose tissue (eWAT) were harvested for analyses. […] Following reverse transcription, levels of cFos and early growth response-1 (EGR1) mRNA levels were subsequently probed by quantitative PCR (ThermoFisher) and analyzed by ΔΔCT method. […]

human FGFR1/KLB = assay: Agonist pERK AlphaScreen assay in BaF3 cells, FGFR1/KLB; assay type: cell-based; conditions: BaF3 cells co-expressing KLB and FGFR1; 15 min at 37° C; n = 3
Source text: (§3) For generating receptor specific BaF3 cell line, human FGFR1c cDNA was cloned into pMXs-IRES-Puro vector (Cell Biolabs) to generate the expression plasmid pMX-FGFR1c-IRES-Puro. Human FGFR4 sequence was re-engineered to enhance signaling by constructing chimeric cDNA encoding the extracellular region of FGFR4 fused to the intracellular region and tyrosine kinase domain of FGFR1c, and the chimeric sequence was cloned into pMX-IRES-Puro vector to generate the expression plasmid pMX-chimeric FGFR4-1c-IRES-Puro. Human KLB cDNA was cloned into pMXs-IRES-Neo vector (Cell Biolabs) to generate expression plasmid pMX-KLB-IRES-Neo. BaF3 cells were transfected with pMX-FGFR1c-IRES-Puro and pMX- FGFR4-1c chimera-IRES-Puro expression plasmids respectively by electroporation (Xcell machine, Bio-Rad, 950 μF, 370V). Cells were selected with media containing 1 μg/ml Puromycin for 10–12 days. […]
(§4) 293T HEK cells expressing KLB (or KL) or Hep3B cells were plated to 5–6 x 10^4 cells/well density in 96-well cell culture plate coated with poly-D-Lysine (Corning). […] Phosphorylated ERK1/2 (pERK) levels were subsequently recorded by EnSpire Alpha or Envision Multilabel plate reader (Perkin Elmer). […]
(§5) All cellular phosphorylation data were analyzed using 3-parameter non-linear regression curve in GraphPad Prism 7. […]

[1] = test system: diet-induced obese (DIO) mice; assay: In vivo FGF21 agonism study in DIO mice; parameters: species or system mouse; conditions: for Body weight change: daily sc 0.1, 0.3 or 1 mg/kg for 7 days, n = 8
Source text: as §2
Mice were administered vehicle, FGF21 or FGF21-19A (0.1, 0.3 and 1 mg/kg) daily via sc injections and their body weight measurements were made on alternative days. At the end of 7 day treatment, blood was collected from tail veins using EDTA-coated microvette tubes (Sarstedt), immediately placed on ice, centrifuged at 5000 × g and 4 °C for 10 min, and plasma was stored at −80 °C until analyzed. Triglycerides and cholesterol levels were analyzed using colorimetric assay (Thermo Fisher).
Statistical analyses for in vivo experiments were performed on data using a one- (Figure 5A,B and 5D) or two-way (Figure 5C) ANOVA followed by Tukey post hoc multiple comparison analysis. All results are presented as mean ± SEM, n = 5–8, and P < 0.05 was considered significant. Group size estimations were based upon a power calculation to minimally yield an 80% chance to detect a significant difference in body weight of P < 0.05.

[2] = test system: human FGFR4-1c chimera/KLB; assay: Agonist pERK AlphaScreen assay in BaF3 cells, FGFR4-1c chimera/KLB; assay type: cell-based; conditions: BaF3 cells co-expressing KLB and FGFR4-1c chimera; 15 min at 37° C; n = 3
Source text: as §3, §4, §5

Hep3B cells = assay: Agonist pERK AlphaLISA assay in Hep3B cells; assay type: cell-based, human; conditions: 10 min at 37° C, n = 3
Procedure: as §1, with “Following the respective cell treatments, the cells were lysed (with lysis buffer provided in the kit) for 10 min at room temperature on a shaker and the lysate was mixed with reaction mixture (consisting of reaction buffer, activation buffer, acceptor and donor beads provided in the kit).” left out, “The cell assays corresponding to 293/KLB or Hep3B cells were carried out with AlphaLISA SureFire Ultra pERK1/2 (Thr 202/Tyr204) kit (Perkin Elmer), and BaF3 cells were done using AlphaScreen pERK1/2 (Thr202/Tyr204) kit (Perkin Elmer).” left out
(§6) All cellular phosphorylation data were analyzed using 3-parameter non-linear regression curve in GraphPad Prism 7. […] Each peptide and protein analog was tested in triplicates in three independent experiments (n = 3), and normalized graphs plotted are expressed as mean ± SD unless otherwise noted.

293/KL cells = assay: Agonist pERK assay in 293/KL cells; assay type: cell-based, human; conditions: n = 3
Procedure: as §1, with “Following the respective cell treatments, the cells were lysed (with lysis buffer provided in the kit) for 10 min at room temperature on a shaker and the lysate was mixed with reaction mixture (consisting of reaction buffer, activation buffer, acceptor and donor beads provided in the kit).” left out, “The cell assays corresponding to 293/KLB or Hep3B cells were carried out with AlphaLISA SureFire Ultra pERK1/2 (Thr 202/Tyr204) kit (Perkin Elmer), and BaF3 cells were done using AlphaScreen pERK1/2 (Thr202/Tyr204) kit (Perkin Elmer).” left out
as §6

[3] = daily sc 0.1, 0.3 or 1 mg/kg, day 7

Row | Molecule | pERK agonist activity, in words (293/KLB cells) | cFos and EGR1 transcriptional activity, FGF alone (lean (C57BL/6J) mice) | pERK agonist activity, in words (human FGFR1/KLB) | Body weight change [1] | Circulating insulin [1, 3] | pERK agonist activity, in words [2] | pERK agonist activity, in words (Hep3B cells) | Fasted plasma glucose, difference to native FGF21 [1, 3] | Plasma cholesterol ([1]; daily sc 0.1, 0.3 or 1 mg/kg, end of 7 day treatment) | pERK agonist activity, in words (293/KL cells)
1 | B1 | only negligible activity | – | – | – | – | – | – | – | – | –
2 | B2 | nanomolar potencies | induced robust transcriptional activity in each tissue | active | induced weight loss in a dose-dependent manner | potently reduced circulating insulin when compared to vehicle treatment | minimal signaling | – | – | – | –
3 | B3 | significantly more potent when compared to native FGF21; also recorded: ten-fold-enhanced in vitro potency | – | – | dramatically more potent at each corresponding dose | potently reduced circulating insulin when compared to vehicle treatment | – | significantly more potent when compared to native FGF21; also recorded: ten-fold-enhanced in vitro potency | statistically different only at the 0.3 mg/kg dose | plasma cholesterol was lowered | –
4 | B4 | – | – | – | – | – | – | – | – | – | significantly more potent than FGF21
